Drawing on publication doi:10.1101/2025.06.24.661301, this text covers Kd for four substances.

As a reminder, the Kd is the equilibrium constant for the complex coming apart.

Experiment [1] addresses Arp2/3 complex (human) (UniProt P61158). The experiment is described as follows: SPR. For orientation: Surface plasmon resonance follows binding to a sensor surface in real time, without labels.
Experiment [2] has the same target. The experiment in a line: SPR. This is another data set of the same source.

Read-outs that look alike come from different tables or passages of the source.

Regarding “Arpin CT peptide (residues 192-226) (from UniProt Q7Z6K5-1 192-226)”, in the experiment with Arp2/3 complex (human) [1], the Kd worked out at 17.8 µM.

On to “GST-aCT (chimeric protein with Arpin's CT fused to the C-terminus of glutathione S-transferase through the spacer -GSSG-)”, for which the Kd in the experiment with Arp2/3 complex (human) [1] is 2.5 µM. This Kd is about 7.1-fold lower than that of the substance before.

With “full-length Arpin (SEC fractions used in SPR) (from UniProt Q7Z6K5-1 1-226) (natural protein)”, the results for the Kd in the experiment with Arp2/3 complex (human) [2] and with Arp2/3 complex (human) [1] were 48.9 µM and 14.1 µM, respectively.

In the experiment with Arp2/3 complex (human) [1], “human Arpin with the double-site alanine substitution F95A/M97A (from UniProt Q7Z6K5-1 1-226) (natural protein)” yielded an equilibrium dissociation constant (Kd) of 63.1 µM.
